Results taken from patent publication US20020025923A1 (University of California, published 2002).

B1: CD34, component of PNAd from human tonsil (ligand, UniProt P28906 32-385, looked up)
chain: SLDNNGTATPELPTQGTFSNVSTNVSYQETTTPSTLGSTSLHPVSQHGNEATTNITETTVKFTSTSVITSVYGNTNSSVQSQTSVISTVFTTPANVSTPETTLKPSLSPGNVSDLSTTSTSLATSPTKPYTSSSPILSDIKAEIKCSGIREVKLTQGICLEQNKTSSCAEFKKDRGEGLARVLCGEEQADADAGAQVCSLLLAQSEVRPQCLLLVLANRTEISSKLQLMKKHQSDLKKLGILDFTEQDVASHQSYSQKTLIALVTSGALLAVLGITGYFLMNRRSWSPTGERLGEDPYYTENGGGQGYSSGPGTSPEAQGKASVNRGAQENGTGQATSRNGHSARQHVVADTEL
modifications: native glycoprotein carrying the MECA-79 epitope

Tests used:
[1] = molecular target: T1, CD4/IgG chimera (entire extracellular domain of human CD4 fused to the Fc domain of human IgG1) (human, UniProt P01730 26-396); experiment: precipitation of PNAd with the IgG chimera (CD34 as a named component of PNAd)
T1 construct: extracellular domain; Control chimera; also called control CD4/IgG chimera; not shown: Fc domain of human IgG1

[2] = molecular target: B1; experiment: precipitation of PNAd with the L-selectin/IgG chimera, elution with EDTA

Row | binding result [1] | binding result [2] | Binder
1 | no binding | – | B1
2 | – | binds | L-selectin/IgG chimera (entire extracellular domain of murine L-selectin fused to the Fc domain of human IgG1) (Fc fusion, UniProt P18337 39-332, looked up, extracellular domain; From supernatants of transfected 293 cells, protein-A purified; also called recombinant L-selectin/IgG chimera; not shown: Fc domain of human IgG1) WTYHYSEKPMNWENARKFCKQNYTDLVAIQNKREIEYLENTLPKSPYYYWIGIRKIGKMWTWVGTNKTLTKEAENWGAGEPNNKKSKEDCVEIYIKRERDSGKWNDDACHKRKAALCYTASCQPGSCNGRGECVETINNHTCICDAGYYGPQCQYVVQCEPLEAPELGTMDCIHPLGNFSFQSKCAFNCSEGRELLGTAETQCGASGNWSSPEPICQVVQCEPLEAPELGTMDCIHPLGNFSFQSKCAFNCSEGRELLGTAETQCGASGNWSSPEPICQETNRSFSKIKEGDYN
